According to the supplement of paper PMC10567573:

B1: MNAT1 (parent)
chain: LEEALYEYQPLQIETYGPHVPELE

Variants of: B1
Experiment: protein stability index of a GFP-peptide fusion (GPS, HEK-293T) (PSI 1-6); higher = more stable
Settings: c terminus: a fixed tail appended
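Further: lentivirally expressed fusions sorted by FACS into six bins by GFP to DsRed ratio, PSI derived from sequencing read proportions per bin multiplied by bin number.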

Variant | protein stability index
LEEALYEYQPLQHETYGPHVPELE [I13H] | 5.15
LEEALYEYQPLQLETYGPHVPELE [I13L] | 4.51
LEEALYEYQPLQQETYGPHVPELE [I13Q] | 5.01
LEEALYEYQPLQMETYGPHVPELE [I13M] | 4.27
LEEALYEYQPLQYETYGPHVPELE [I13Y] | 4.41
LEEALYEYQPLQFETYGPHVPELE [I13F] | 4.34
LEEALYEYQPLQNETYGPHVPELE [I13N] | 5.5
LEEALYEYQPLQRETYGPHVPELE [I13R] | 4.76
LEEALYEYQPLQKETYGPHVPELE [I13K] | 4.9
LEEALYEYQPLQPETYGPHVPELE [I13P] | 5.08
LEEALYEYQPLQAETYGPHVPELE [I13A] | 5.37
LEEALYEYQPLQGETYGPHVPELE [I13G] | 5.01
LEEALYEYQPLQCETYGPHVPELE [I13C] | 4.14
LEEALYEYQPLQWETYGPHVPELE [I13W] | 3.8
LEEALYEYQPLQSETYGPHVPELE [I13S] | 4.96
LEEALYEYQPLQDETYGPHVPELE [I13D] | 5.07
LEEALYEYQPLQEETYGPHVPELE [I13E] | 5.29
LEEALYEYQPLQTETYGPHVPELE [I13T] | 4.75
LEEALYEYHPLQIETYGPHVPELE [Q9H] | 1.87
LEEALYEYNPLQIETYGPHVPELE [Q9N] | 2.59
LEEALYEYTPLQIETYGPHVPELE [Q9T] | 4.38
LEEALYEYYPLQIETYGPHVPELE [Q9Y] | 2.43
LEEALYEYDPLQIETYGPHVPELE [Q9D] | 4.67
LEEALYEYCPLQIETYGPHVPELE [Q9C] | 2.6

Variant | protein stability index
LEEALYEYVPLQIETYGPHVPELE [Q9V] | 3.84
LEEALYEYFPLQIETYGPHVPELE [Q9F] | 2.13
LEEALYEYMPLQIETYGPHVPELE [Q9M] | 2.74
LEEALYEYSPLQIETYGPHVPELE [Q9S] | 2.94
LEEALYEYWPLQIETYGPHVPELE [Q9W] | 2.79
LEEALYEYPPLQIETYGPHVPELE [Q9P] | 5.02
LEEALYEYEPLQIETYGPHVPELE [Q9E] | 4.38
LEEALYEYGPLQIETYGPHVPELE [Q9G] | 3.46
LEEALYEYLPLQIETYGPHVPELE [Q9L] | 2.7
LEEALYEYKPLQIETYGPHVPELE [Q9K] | 2.68
LEEALYEYIPLQIETYGPHVPELE [Q9I] | 3.56
LEEALYEYRPLQIETYGPHVPELE [Q9R] | 1.88
LEEALYEYQPLWIETYGPHVPELE [Q12W] | 2.11
LEEALYEYQPLAIETYGPHVPELE [Q12A] | 2.33
LEEALYEYQPLEIETYGPHVPELE [Q12E] | 3.67
LEEALYEYQPLIIETYGPHVPELE [Q12I] | 2.5
LEEALYEYQPLDIETYGPHVPELE [Q12D] | 3.92
LEEALYEYQPLTIETYGPHVPELE [Q12T] | 3.19
LEEALYEYQPLYIETYGPHVPELE [Q12Y] | 2.01
LEEALYEYQPLNIETYGPHVPELE [Q12N] | 2.65
LEEALYEYQPLRIETYGPHVPELE [Q12R] | 2.27
LEEALYEYQPLFIETYGPHVPELE [Q12F] | 2.12
LEEALYEYQPLMIETYGPHVPELE [Q12M] | 2.35
LEEALYEYQPLLIETYGPHVPELE [Q12L] | 2.67

Variant | protein stability index
LEEALYEYQPLSIETYGPHVPELE [Q12S] | 2.21
LEEALYEYQPLKIETYGPHVPELE [Q12K] | 1.84
LEEALYEYQPLGIETYGPHVPELE [Q12G] | 2.75
LEEALYEYQPLCIETYGPHVPELE [Q12C] | 2.14
LEEALYEYQPLPIETYGPHVPELE [Q12P] | 5.02
LEEALYEYQPLHIETYGPHVPELE [Q12H] | 2.5
LEEALYEYQPLVIETYGPHVPELE [Q12V] | 2.46
LEEALYEYQPYQIETYGPHVPELE [L11Y] | 3.18
LEEALYEYQPKQIETYGPHVPELE [L11K] | 4.26
LEEALYEYQPSQIETYGPHVPELE [L11S] | 4.11
LEEALYEYQPQQIETYGPHVPELE [L11Q] | 4.28
LEEALYEYQPMQIETYGPHVPELE [L11M] | 3.17
LEEALYEYQPWQIETYGPHVPELE [L11W] | 4.27
LEEALYEYQPEQIETYGPHVPELE [L11E] | 4.77
LEEALYEYQPAQIETYGPHVPELE [L11A] | 4.06
LEEALYEYQPCQIETYGPHVPELE [L11C] | 2.99
LEEALYEYQPVQIETYGPHVPELE [L11V] | 2.04
LEEALYEYQPTQIETYGPHVPELE [L11T] | 3.99
LEEALYEYQPFQIETYGPHVPELE [L11F] | 4.11
LEEALYEYQPNQIETYGPHVPELE [L11N] | 4.71
LEEALYEYQPIQIETYGPHVPELE [L11I] | 2.56
LEEALYEYQPRQIETYGPHVPELE [L11R] | 4.32
LEEALYEYQPDQIETYGPHVPELE [L11D] | 4.85
LEEALYEYQPGQIETYGPHVPELE [L11G] | 5.26

Variant | protein stability index
LEEALYEYQPPQIETYGPHVPELE [L11P] | 5.15
LEEALYEYQPHQIETYGPHVPELE [L11H] | 4.61
LEEALYEYQPLQIATYGPHVPELE [E14A] | 2.3
LEEALYEYQWLQIETYGPHVPELE [P10W] | 2.63
LEEALYEYQGLQIETYGPHVPELE [P10G] | 4.24
LEEALYEYQSLQIETYGPHVPELE [P10S] | 4.05
LEEALYEYQNLQIETYGPHVPELE [P10N] | 4.75
LEEALYEYQALQIETYGPHVPELE [P10A] | 3.89
LEEALYEYQMLQIETYGPHVPELE [P10M] | 3.85
LEEALYEYQELQIETYGPHVPELE [P10E] | 4.6
LEEALYEYQQLQIETYGPHVPELE [P10Q] | 4.43
LEEALYEYQILQIETYGPHVPELE [P10I] | 2.77
LEEALYEYQRLQIETYGPHVPELE [P10R] | 4.01
LEEALYEYQLLQIETYGPHVPELE [P10L] | 3.32
LEEALYEYQDLQIETYGPHVPELE [P10D] | 4.33
LEEALYEYQKLQIETYGPHVPELE [P10K] | 4.53
LEEALYEYQTLQIETYGPHVPELE [P10T] | 4.1
LEEALYEYQYLQIETYGPHVPELE [P10Y] | 3.09
LEEALYEYQCLQIETYGPHVPELE [P10C] | 3.27
LEEALYEYQHLQIETYGPHVPELE [P10H] | 4.99
LEEALYEYQFLQIETYGPHVPELE [P10F] | 2.91
LEEALYEYQVLQIETYGPHVPELE [P10V] | 2.25
